From patent US6429191B1, “Treatment of hearing impairments” (Genentech, Inc., priority 1996, dated 2002)

B1: E92A NT-3: NT-3 with mutation at position E92 to alanine (protein, UniProt P20783 139-257, looked up, variant E92A)
Neurotrophin-3: YAEHKSHRGEYSVCDSESLWVTDKSSAIDIRGHQVTVLGEIKTGNSPVKQYFYETRCKEARPVKNGCRGIDDKHWNSQCKTSQTYVRALTSANNKLVGWRWIRIDTSCVCALSRKIGRT
modifications: Neurotrophin-3
notes: NT-3 with mutation at position E92 to alanine
B2: neurotrophin-4/5 (protein, UniProt P34130 81-210, looked up)
Neurotrophin-4: GVSETAPASRRGELAVCDAVSGWVTDRRTAVDLRGREVEVLGEVPAAGGSPLRQYFFETRCKADNAEEGGPGAGGGGCRGVDRRHWVSECKAKQSYVRALTADAQGRVGWRWIRIDTACVCTLLSRTGRA
modifications: Neurotrophin-4
B3: TGF-β2: transforming growth factor (protein, UniProt P61812 303-414, looked up)
Transforming growth factor …: ALDAAYCFRNVQDNCCLRPLYIDFKRDLGWKWIHEPKGYNANFCAGACPYLWSSDTQHSRVLSLYNTINPEASASPCCVSQDLEPLTILYYIGKTPKIEQLSNMIVKSCKCS
B4: TGF-β3: transforming growth factor (protein, UniProt P10600 301-412, looked up)
Transforming growth factor …: ALDTNYCFRNLEENCCVRPLYIDFRQDLGWKWVHEPKGYYANFCSGPCPYLRSADTTHSTVLGLYNTLNPEASASPCCVPQDLEPLTILYYVGRTPKVEQLSNMVVKSCKCS
B5: FGF-5: growth factor (R & D Systems) (protein, UniProt P12034 21-268, looked up)
Fibroblast growth factor 5: HGEKRLAPKGQPGPAATDRNPRGSSSRQSSSSAMSSSSASSSPAASLGSQGSGLEQSSFQWSPSGRRTGSLYCRVGIGFHLQIYPDGKVNGSHEANMLSVLEIFAVSQGIVGIRGVFSNKFLAMSKKGKLHASAKFTDDCKFRERFQENSYNTYASAIHRTEKTGREWYVALNKRGKAKRGCSPRVKPQHISTHFLPRFKQSEQPELSFTVTVPEKKKPPSPIKPKIPLSAPRKNTNSVKYRLKFRFG
B6: FGF-7: growth factor (R&D Systems) (protein, UniProt P21781 32-194, looked up)
Fibroblast growth factor 7: CNDMTPEQMATNVNCSSPERHTRSYDYMEGGDIRVRRLFCRTQWYLRIDKRGKVKGTQEMKNNYNIMEIRTVAVGIVAIKGVESEFYLAMNKEGKLYAKKECNEDCNFKELILENHYNTYASAKWTHNGGEMFVALNQKGIPVRGKKTKKEQKTAHFLPMAIT

Key:
[1] = molecular target: trkC receptor (Homo sapiens, UniProt Q16288); settings: compared with NT-3; cited from earlier work
[2] = test system: spiral ganglion neurons (SGNs); test: Survival of dissociated spiral ganglion neurons in serum-free culture; type: cell-based, rat; settings: for survival-promoting effect on SGNs: P5 rat SGNs, neurotrophins 0.1-50 ng/ml
Description: FIG. 1 is a histogram depicting the effects of NT-4/5 on SGN survival. SGNs were prepared from P5 rats, plated and kept for 2 days in serum-free medium in the absence or presence of NT-4/5 at different concentrations. Viable SGNs were identified by labeling with a neurofilament monoclonal antibody (N52), viewed under a Zeiss Axiophot microscope, and counted using a grid ocular reticule covering an area of […]. For each culture, about 10 randomly selected fields were counted. Data were collected from 3 to 5 cultures and normalized as a percentage of the number of viable neurons in the control cultures in each of the experiments. The error bars represent SEM.
FIG. 2 is a histogram depicting the effects of different neurotrophins on SGN survival. SGNs were prepared from P5 rats and maintained for 2 days in serum-free medium without or with different neurotrophins at different concentrations. Quantitation of viable SGNs was made in the same way as in FIG. 1 and the error bars are SEM. […] Difference between NT-3 and NT-4/5 or BDNF was very significant at all doses (P<0.001). No statistical difference was found between NT-4/5 and BDNF except the dose of 0.1 ng/ml (P<0.01).
Identical results (not shown) were also obtained with a different neuronal marker, a monoclonal antibody 3A10 (Furley et al., 1990). SGNs were dissociated from postnatal day 5 (P5) rat cochleae and plated in defined serum-free medium. […] The enzyme was inactivated with a mixture of 0.005% soybean trypsin inhibitor (Sigma) and 0.005% DNase (Worthington) before trituration with 0.05% DNase in Eagle's Basal Medium (“BME”). The dissociated cells were preplated on a 35 mm untreated tissue culture dish for 25 min to enrich the neuronal population. Under these experimental procedures, about 10% of the cell population were spiral ganglion neurons (“SGNs”) as determined by immunocytochemistry with a monoclonal antibody (N52; Boehringer) against neurofilaments (200 kd; Boehringer). […] Cells were plated at a density of 80,000/well. In control cultures about 75% of SGNs died after 2 days, presumably due to a lack of growth factors.

[3] = test system: hair cells in cochlear explants; test: Protective effects in cochlear explant cultures co-treated with ototoxins, hair cell count; type: cell-based, rat; settings: for protective effects on hair cells against ototoxins: growth factor added together with ototoxin, data not shown
Description: (§1) FIGS. 9A and 9B depict quantitation of protective effects of NT-4/5 on SGNs (FIG. 9A) and hair cells (FIG. 9B). […] The same experimental procedures were performed as in FIGS. 6A and 6B. The error bars are SEM and ** indicate that as compared to the cultures containing an ototoxin alone, p<0.001. “Con” indicates control culture.
(§2) The protective effect of neurotrophins against ototoxicity was determined in the organotypic cultures of postnatal cochlear explants described in the Examples above. […] A human recombinant neurotrophin (Genentech, Inc.) or other growth factors, alone or in combination, was added to the culture at the same time the ototoxin was added.
(§3) Two days after treatment with ototoxins or co-treatment with ototoxins and neurotrophins (or other growth factors), the cochlear explant cultures were fixed in 4% paraformaldehyde in 0.1 M phosphate buffer (pH 7.4) for 30 min, washed in PBS, and subjected to double histochemical staining of the cochlear explant cultures. After incubation with the monoclonal antibody N52 against neurofilament protein (200 kd) in 1% Triton X100 containing 3% normal goat serum (“NGS”) for 2 days at 4° C., the explants were incubated with a Texas red-conjugated goat anti-mouse secondary antibody (1:70; Cappel) at room temperature for 40 min. The preparations were then stained with FITC-conjugated phalloidin (0.5 μg/ml; Sigma) for 45 min, washed in PBS and mounted in Fluoromount-G (Southern Biotechnology Associates, Birmingham, Ala.) which contains an anti-fading agent.

[4] = test system: SGNs in cochlear explants; test: Protective effects in cochlear explant cultures co-treated with ototoxins, SGN peripheral axon count; type: cell-based, rat; settings: for protective effects on SGNs against ototoxins: growth factor added together with ototoxin, data not shown
Description: as §1
FIG. 10 depicts quantitation of neuroprotection of different neurotrophins against sodium salicylate (Sal) and gentamicin (Gent). […] Sodium salicylate (5 mM) or gentamicin (3 mM) was added either alone or in combination with one of the neurotrophins (20 ng/ml) to 2-day cultures and the cultures were kept for 2 more days. The same experimental procedures were performed as in FIGS. 6A and 6B. […] The error bars are SEM and ** indicate that as compared to the cultures containing an ototoxin alone, p<0.001.
as §2, §3

[5] = test system: spiral ganglion neurons (SGNs); test: Neurotrophin protection of dissociated SGNs against cisplatin neurotoxicity; type: cell-based, rat; settings: 10 ng/ml neurotrophin
Source text: Quantitation of viable SGNs was done in the same way as in FIG. 1. The error bars stand for SEM. […] While no difference was found between cultures containing NT-4/5 and cultures containing BDNF, the difference between cultures containing NT-3 and cultures containing NT-4/5 or BDNF was statistically very significant (P<0.001).

trkC receptor, sequence (Q16288 32-839): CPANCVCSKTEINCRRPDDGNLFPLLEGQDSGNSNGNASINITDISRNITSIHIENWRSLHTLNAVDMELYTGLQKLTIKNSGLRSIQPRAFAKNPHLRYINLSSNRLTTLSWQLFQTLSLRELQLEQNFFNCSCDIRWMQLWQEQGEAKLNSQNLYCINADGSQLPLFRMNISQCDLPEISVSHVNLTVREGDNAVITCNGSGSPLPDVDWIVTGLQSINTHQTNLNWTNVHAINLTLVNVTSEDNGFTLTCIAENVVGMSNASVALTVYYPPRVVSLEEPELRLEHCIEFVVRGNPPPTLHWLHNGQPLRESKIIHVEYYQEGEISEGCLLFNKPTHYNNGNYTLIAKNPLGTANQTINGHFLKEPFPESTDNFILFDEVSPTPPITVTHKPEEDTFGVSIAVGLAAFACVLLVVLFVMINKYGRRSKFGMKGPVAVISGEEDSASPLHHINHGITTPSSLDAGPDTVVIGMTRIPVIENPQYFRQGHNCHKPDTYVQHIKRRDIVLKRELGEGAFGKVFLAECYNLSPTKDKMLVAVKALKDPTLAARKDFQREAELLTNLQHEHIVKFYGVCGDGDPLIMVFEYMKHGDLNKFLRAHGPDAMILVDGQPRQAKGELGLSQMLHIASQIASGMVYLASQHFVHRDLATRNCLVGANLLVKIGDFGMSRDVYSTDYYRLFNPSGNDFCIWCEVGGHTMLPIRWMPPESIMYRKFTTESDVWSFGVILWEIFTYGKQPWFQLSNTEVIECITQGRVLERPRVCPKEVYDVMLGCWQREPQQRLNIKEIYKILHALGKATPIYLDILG

Row | Molecule | survival-promoting effect on SGNs ([2]; 2 days, serum-free medium) | protective effects on hair cells against ototoxins [3] | protective effects on SGNs against ototoxins [4] | other results
1 | B1 |  |  |  | trkC binding of NT-3 mutant [1]: increased trkC binding
2 | B2 | greatly enhanced the number of surviving SGNs in a dose-dependent manner |  |  | potency on SGN survival compared with other neurotrophins ([2]; 0.1 ng/ml): more potent than BDNF; maximal effect, increase in number of surviving SGNs ([2]; 10 ng/ml, 2 days, serum-free medium, vs control cultures): approximately 3 fold; synergistic/additive effects on SGN survival when added together with BDNF or NT-3 ([2]; saturated concentrations): no additive effects; number of hair cells in control cultures ([3]; 20 ng/ml, no ototoxin): did not enhance; neuroprotection of SGNs against sodium salicylate and gentamicin ([4]; 20 ng/ml neurotrophin, sodium salicylate 5 mM or gentamicin 3 mM): significant neuroprotection; number of SGNs in control cultures ([4]; 20 ng/ml, no ototoxin): did not enhance; protection of SGNs from the three ototoxins ([4]; 20 ng/ml, sodium salicylate 5 mM, gentamicin 3 mM or cisplatin 4 μg/ml, 2 days co-treatment): significantly protected SGNs from the three ototoxins; percentage of surviving SGNs compared with control cultures lacking cisplatin ([5]; 1 μg/ml or 2 μg/ml cisplatin, 2 days): higher than that in the control cultures lacking cisplatin; protection of SGNs compared with cultures containing cisplatin alone ([5]; 4 μg/ml cisplatin): significantly protected SGNs from cell death; survival level, % of control cultures in the absence of cisplatin ([5]; 4 μg/ml cisplatin, 2 days): 70%
3 | B3 | No survival-promoting effects | did not show detectable protective effects | did not show detectable protective effects | 
4 | B4 | No survival-promoting effects | did not show detectable protective effects | did not show detectable protective effects | 
5 | B5 |  | did not show detectable protective effects | did not show detectable protective effects | 
6 | B6 |  | did not show detectable protective effects | did not show detectable protective effects | 
